The values below come from US20250295801A1, “CD25 ANTIBODIES, ANTIBODY DRUG CONJUGATES, AND USES THEREOF” (Seagen Inc., priority 2024, published 2025).

Assay [1] concerns the target T1, recombinant human CD25 (human, UniProt P01589 22-213, limits assumed, biotinylated in the Octet kinetic assay (site not stated)).
T1 construct: Soluble recombinant antigen; It was coated on plates for ELISA and used as bought biotinylated protein for BLI; The ELISA and BLI reagents may be different constructs; also called hCD25; CD25/IL2RA
T1 sequence: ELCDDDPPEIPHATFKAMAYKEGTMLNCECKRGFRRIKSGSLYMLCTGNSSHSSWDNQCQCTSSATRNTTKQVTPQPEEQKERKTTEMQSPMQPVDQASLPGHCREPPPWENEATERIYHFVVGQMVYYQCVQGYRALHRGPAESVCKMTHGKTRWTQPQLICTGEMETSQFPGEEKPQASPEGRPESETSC
Briefly: saturation binding ELISA on recombinant human CD25. A general note: ELISA stands for enzyme-linked immunosorbent assay.

Assay [2] concerns the target T2, human CD25 on CD25 expressing cells (human, UniProt P01589 22-272).
T2 construct: Endogenous CD25 on human lymphoma lines (L540cy, Karpas-299) and on human Treg cells; also called CD25 on L540cy cells; CD25 on Karpas-299 cells
T2 sequence: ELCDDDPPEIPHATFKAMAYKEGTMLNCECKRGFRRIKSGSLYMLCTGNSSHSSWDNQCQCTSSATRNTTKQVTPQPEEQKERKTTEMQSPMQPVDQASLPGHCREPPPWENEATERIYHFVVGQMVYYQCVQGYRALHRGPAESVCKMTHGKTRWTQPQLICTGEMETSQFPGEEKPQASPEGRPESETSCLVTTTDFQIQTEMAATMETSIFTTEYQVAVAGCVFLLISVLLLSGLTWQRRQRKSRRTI
Briefly: saturation binding by flow cytometry on L540cy cells (CD25: 55,000 per cell), MFI (Gmean).
Description: (§1) For cellular binding analysis by FACS, cells expressing the target protein of interest (2×10⁵) were treated with a serial dilution of indicated antibody in staining buffer (PBS, 5% FBS, 0.2% NaN₃). Samples were incubated for 1 hour on ice and washed twice with ice-cold staining buffer. Cells were resuspended with anti-human IgG-AF488 or IgG-AF647 (JacksonImmunoResearch), 1:200 dilution in staining buffer) for 1 hour on ice. Cells were washed twice with ice cold staining buffer and resuspended in staining buffer. Labeled cells were examined by flow cytometry on an Invitrogen Attune NxT flow cytometer gated to exclude nonviable cells, and the data analyzed using FlowJo10 software. When determined, the KD was calculated using GraphPad Prism 6 using non-linear regression.
(§2) Saturation binding analysis was also performed using high CD25 expressing L540cy cells.

For assay [3], the target named is T2, human CD25 on CD25 expressing cells. Described as above. The source holds these as a separate data set.
Description: as §1, §2
Assay [4] has as its target T1, recombinant human CD25. Briefly: saturation binding ELISA on plate-coated recombinant human CD25.
Description: (§3) Saturation binding ELISA experiments were performed using soluble recombinant antigens, which were diluted to an appropriate concentration in 50 mM carbonate buffer, pH 9.6. To each well of a 96- or 384-well Maxisorb ELISA plate was added 100 μL of soluble antigen. The plate was sealed and stored at 4° C. overnight. The plate was then washed 3-5 times with PBS-T was buffer (PBS, pH 7.4+0.05% Tween-20). The wells were blocked using 300 μL/well of PBS-T buffer containing BSA for 1 hour at room temperature, then washed 3-5 times with PBS-T. Dilutions of antibodies were prepared in blocking buffer and added to each well in a volume of 100 μL. The antibodies were incubated for 1 hour at room temperature, and then washed 3-5 times with PBS-T. HRP-conjugated secondary antibodies (anti-human Fc) were then added and incubated for 1 hour at room temperature. The plate was washed 3-5 times with PBS-T. The ELISA was developed by adding 100 μL of TMB solution and incubating for 3-15 min at room temperature. To stop the reaction, 100 μL of 1 N sulfuric acid was added to each well. The absorbance at 450 nm was determined using a Spectramax 190 plate reader (Molecular Biosciences) and the data plotted using GraphPad Prism 6.
Assay [5] addresses T3, recombinant cynomolgus CD25 (cynomolgus, UniProt H6WS54 22-213).
T3 construct: also called cyno CD25; cynomolgus CD25/IL2RA
T3 sequence: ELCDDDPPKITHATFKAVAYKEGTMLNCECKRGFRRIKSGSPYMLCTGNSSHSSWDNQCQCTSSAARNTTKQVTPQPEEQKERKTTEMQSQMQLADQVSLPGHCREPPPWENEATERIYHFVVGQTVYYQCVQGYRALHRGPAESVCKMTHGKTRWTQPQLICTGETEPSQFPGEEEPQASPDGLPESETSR
Briefly: ELISA on plate-coated cynomolgus CD25.
Description: as §3

The target in assay [6] is T3, recombinant cynomolgus CD25. Briefly: saturation binding ELISA on plate-coated recombinant cynomolgus CD25.
Description: as §3
The target in assay [7] is T1, recombinant human CD25. Briefly: BLI kinetics (Octet RED384), biotinylated hCD25 on SAX tips, 1:1 global fit. On the technique in general: Biolayer interferometry detects binding as a change in optical thickness at a sensor tip.
Description: Biotinylated recombinant human CD25 was obtained from Acro Biosystems. Biotinylated hCD25 protein was loaded on SAX (High sensitivity streptavidin) tips at 0.8 nM loading density. Affinity measurements were run using a ForteBio Octet RED384 instrument in the kinetic buffer comprising 1×PBS, 0.1% BSA, 0.02% Tween20, pH 7.4. Association measurements were performed for 300 seconds and disassociation measurements were performed for 900 seconds. Each curve was reference subtracted and modeled using a 1:1 global fit. KD results are reported as kₐ divided by kd.
Assay [8] concerns the target T3, recombinant cynomolgus CD25. Briefly: saturation binding ELISA on recombinant cynomolgus CD25.
Description: as §3
In assay [9] the target is T1, recombinant human CD25. Briefly: saturation binding ELISA on recombinant human CD25. This is another data set of the same source.
Description: as §3
Assay [10] addresses T1, recombinant human CD25. Briefly: saturation binding ELISA on recombinant human CD25. This is another data set of the same source.
Description: as §3
The target of assay [11] is T1, recombinant human CD25. Briefly: saturation binding ELISA on recombinant human CD25; EC50 relative to SG25Ab-9.
Description: as §3
The target in assay [12] is T3, recombinant cynomolgus CD25. Briefly: saturation binding ELISA on recombinant cynomolgus CD25; EC50 relative to SG25Ab-9.
Description: as §3
Assay [13] relates to CD25 expressing cells. Briefly: Internalization into CD25 expressing cells. The settings on record: FIG. 1E. Format: cell-based, human.
Assay [14] relates to recombinant cyno CD25. Briefly: Saturation binding analysis by ELISA. Set-up: species or system cynomolgus. The settings on record: compared with human CD25, FIG. 1A, 1B, 7. The procedure:
Saturation binding ELISA experiments were performed using soluble recombinant antigens, which were diluted to an appropriate concentration in 50 mM carbonate buffer, pH 9.6. To each well of a 96- or 384-well Maxisorb ELISA plate was added 100 μL of soluble antigen. The plate was sealed and stored at 4° C. overnight. The plate was then washed 3-5 times with PBS-T was buffer (PBS, pH 7.4+0.05% Tween-20). The wells were blocked using 300 μL/well of PBS-T buffer containing BSA for 1 hour at room temperature, then washed 3-5 times with PBS-T. Dilutions of antibodies were prepared in blocking buffer and added to each well in a volume of 100 μL. The antibodies were incubated for 1 hour at room temperature, and then washed 3-5 times with PBS-T. HRP-conjugated secondary antibodies (anti-human Fc) were then added and incubated for 1 hour at room temperature. The plate was washed 3-5 times with PBS-T. The ELISA was developed by adding 100 μL of TMB solution and incubating for 3-15 min at room temperature. To stop the reaction, 100 μL of 1 N sulfuric acid was added to each well. The absorbance at 450 nm was determined using a Spectramax 190 plate reader ([…]) and the data plotted using GraphPad Prism 6.
Saturation binding analysis of CD25 antibody SG25Ab-9 and detuned CD25 antibody SG25Ab-9 YH98A on recombinant human and cyno CD25 was assessed by ELISA.

Like-named read-outs stand apart in the source and are kept apart here.

B1: CD25 antibody SG25Ab-9 (antibody, human IgG1, lambda, V domains shown)
VH: QVQLVQSGAEVKKPGESLKISCKGSGYSSTSYWIGWVRQMPGKGLEWMGIIYPGDSDTRYSPSFQGQVTISADKSISTAYLQWSSLKASDTAMYYCARLGSYYAFDIWGRGTMVTVSS
VL: QSALTQPASVSASPGQSITISCTGTSSDVGAYIYVSWYQQLSGKPPKLILYDVSKRPSGISDRFSGSKSGNTASLTISGLQADDEADYYCSSYTRSSTWVFGGGTQLTVLG
notes: Fully human antibody from a phage scFv library, expressed as IgG1 with a lambda light chain; HC and LC are the entries without signal peptide; also called SG25Ab-9 IgG1; SGAb25-9
Consider B1, for which the EC50 in [1] was found to be 0.1 nM; in [8], 0.25 nM. The “EC50 (read off the curve)” value in [2] was around 0.8 nM; in [3], around 1 nM; in [4] it was 0.1 to 0.2 nM; in [5], 0.1 to 0.2 nM; in assay [6], 0.1 to 0.2 nM; in assay [9], 0.1 to 0.2 nM. The half-maximal effective concentration (EC50 (read off the curve)) in assay [10] fell in the range of 0.1 to 0.2 nM. Further, the Kd in [7] was determined as 0.1 nM. The koff in assay [7] amounted to 2.7e-05 s⁻¹. In addition, in [7], the kon was 210000 M⁻¹ s⁻¹.

B2: detuned CD25 antibody SG25Ab-9 YH98A (antibody, human IgG1, lambda, V domains shown)
VH: QVQLVQSGAEVKKPGESLKISCKGSGYSSTSYWIGWVRQMPGKGLEWMGIIYPGDSDTRYSPSFQGQVTISADKSISTAYLQWSSLKASDTAMYYCARLGSAYAFDIWGRGTMVTVSS
VL: QSALTQPASVSASPGQSITISCTGTSSDVGAYIYVSWYQQLSGKPPKLILYDVSKRPSGISDRFSGSKSGNTASLTISGLQADDEADYYCSSYTRSSTWVFGGGTQLTVLG
notes: IgG1; Tyr to Ala in CDR-H3 (YH98A); also called SGAb25-9 YH98A
In the case of B2, the EC50 in [1] was around 116 nM. Moreover, the “Fold Change” value in [11] is around 1160. In [7], the Kd was found to be 14 nM, the koff was found to be 0.0043 s⁻¹ and the kon is 310000 M⁻¹ s⁻¹. Also, in assay [8], the concentration for a half-maximal effect (EC50) is around 238 nM. Also, the “Fold Change” value in assay [12] is around 950.

B3: SG25Ab-4: human anti-CD25 IgG1 antibody; VH SEQ ID NO: 31, VL SEQ ID NO: 32 (antibody, V domains shown)
VH: EVQLVQSGAEVKKPGESLKISCKGPEYSFNRYWIAWVRQRPGKGLEWMGIIYPGDSDARYSPTFEGHVTLSADMSLTTAYLQWSSLRASDTAMYYCARLGSYYAFDIWGKGTMVTVSS
VL: QSALTQPASVSGSPGQSITIFCTGTSSDVGGYNYVSWYQQHPGKAPKLMIYDVSKRPSGVSNRFSGSKSGNTASLTISGLQAEDEADYYCSSYTSSSTWVFGGGTQLTVL
With B3, in [13], the “internalization into CD25 expressing cells” value is recorded as “efficiently internalized into CD25 expressing cells”. For the same molecule, in [14], the “binding to recombinant cynomolgus CD25” value is given as “efficiently bound cynomolgus CD25”.

As usually defined, the EC50 is the concentration that produces a half-maximal response. The EC50 (read off the curve) is the concentration that produces a half-maximal response. Usually Kd stands for a measure of binding affinity in units of concentration. By koff is commonly meant the rate constant with which the complex falls apart. As a reminder, the kon is the rate constant with which the complex forms.
